# In the domain aggregation screens of Martell et al. (2025):
# Experiment: soluble fraction after stress (log2 fold change); higher = more stays soluble; pooled small domains, quantitative proteomics
# Details: stress: pH 4
# In short: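 Pooled custom libraries of small protein domains were stressed at pH 4 and then measured by high-throughput quantitative proteomics. The fold change in the amount of each domain that stays soluble after the acid stress serves as a measure of aggregation propensity. Fold changes are given on a log2 scale, and higher values mean more of the domain stayed soluble.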
row,Sequence,soluble fraction (log2)
1,HMNDRERIGKRIAQLRMEAGISQYKLAELTGLAPGNIARIETGKYSTGIDILSKIGDALGYQLDFI,-0.414
2,HMDPSKMKIDELEIATRTATALADGGIKSVAGLIRKSASALKELDGVGDKAIAEITEALEKLGLELKG,-0.157
3,HMELEFLTEKQKEALILAVNRGYYDVDSEVTLKRLADELGIARSTYGEHLKRAESEALKMVVSDLLRD,-1.03
4,HMEKNILPDTSPEKQYEFATSFLKVGDYSTAERAFREFVINNSEHKLAGNAQYWYAETFRIRQ,0.148
5,HMDAIIVPSVLKMKPFEAEEKLSALGLRMKINDTVYIDNMKPGVIVEQSPTAEEDVKTDRVIYVIVNA,-0.139
6,HMTSPQGIERFLASGVIEGVGKAMAARIVAVFGGQTLEIIEKQPHRLREVRGIGVKTAEKIHASYQEKA,-0.203
7,HMKSARDDILSALDKAGEPLSMKDIAELSGRKLSTLRAQMTRLVAEGAVQATAAAHSPDRKYRK,-0.133
8,HMTSAHEKAFDLFDGGKLSEKALLIAVGAERSGFELAGDLRLRTLTAFEDGRLSEDAMIKLL,-1.5
9,HMQQQLLHIVFGGELKDVTGIEFEDLSKMDFVGAFSNYKDAYDAWKSAAQRTVDHAEMRYFILHAHKLL,-2.31
10,HMDTNPKVIITMDGVNVRSSASTGSDILFIAEKGEEYELISESGDFYKILYEGNKEGYVASWLVETSE,-0.022
11,HMTFPIDINRADTEQLTALPGIGEVLAKRIIAYREENGSFLSTDELKNVEGIGEKRLEAIVDLITIG,-0.935
12,HMDQSIDADIINLNFSKNIIKIEENVYYKNNNAKVNADKIEINIETKKLKISMNEQEDEVEIFAK,-0.399
13,HMVNLLVTPLEELEINFRTLRALRKYNIYQLEDLLRFIKYNGFDALRIVPGMGIKSTEQLYEKLKDKNI,-1.06
14,HMDWFDELKVSTDDSGRVTAPEESEFMFQTSNEKIFAGGDMVRGSDLVVTAIWEGRQAAEGIMDYLD,-0.726
15,HMIPLPEDVASMRERLALTPEKADELFGLEDGSFARYEHGEEKVPFVVFQLLWLLGKYPHLIGELR,-0.801
16,HMVNDQSIYASEGYVHIRSGKPVSLRIYTILGALYRHEERLVGDHVIALPRGLYIVVLNHTAKKIMV,0.021
17,HMASIGTATVTADNLRLRSEAGTGAETLTMAPKGAEVTVEEDAGDGWYKVTYGDTEGYMSGEWLKITLA,-0.0742
18,HMDSILSIVGGEESYKALLAWAENNISQQELQQLETILKSGNVPAIKRVLVTLMNRFNQAQS,-0.547
19,HMEVSVPDFTGMSKSDAQNAAKEAGLTVNFEEDYDNQVPAGQVIRSNPSAGEKVKKNSSVTVTLSKGSN,0.24
20,HMGSWEDALKNWVDSALASGQKGILEQAVPKFERIMIETALTHTAGRRRDASLLLGWGRNTLTRKIKELGI,0.0465
21,HMHPFELNTVTEGQLKRLPFLSDLQIRELLEYRSRYGKMLTLYELKNVEAFDLETISLLVPFIYISEI,-1.44
22,HMRGVDRPLTLPRHWRRNAGRLVKVTLANGSAVTGRVLDPGEERVTLEVSGERHEVAYADVKKALVQVEF,-0.32
23,HMQTLGADLRALRKARGLTLTDMAETLGRSVGWLSQVERDLSEPSITDLRHMARTLGVSVSMLFS,-0.553
24,HMTRLDLQNAFRVLPPEIQPAAVLFFLQERKQREIAKILGIGLPLVKYRIRKARELLAQFLRKEA,-0.073
25,HMDVNMLVTGMLHKGEKSFVRVSFLRGKDWAEGIVPDAKIEKSQGFMEEEVARLEAYLLEQKSMIMEQA,-1.24
26,HMGPSLDAVREQIRDLIAEEDKSAPYSDLSLVAELEKRGIHISRRTIAKYRGEMGIPNSDQRRYF,0.325

row,Sequence,soluble fraction (log2)
1,HMPIHAGERLTLRLAGEGREAGQAIGYLEDGTLVIVERARHLIGQDVTVEVTRTLQTAGGRLVFAHLVE,-0.896
2,HMQVAPDLMQRLTSQGHVDEKLSDALVHARQITNFEGRRRQMQFIGKLMRKLSEESIEAVKDALNEQRM,-0.244
3,HMDGLIRLNKLLATLGVESRRHAEEMIIAGRITVDGVTATEKGQKVRRGAVIKVDGVEVGPPP,0.0501
4,HMNIDGLIGKKALVTADIDNVNSKGQIKINGLEWTARSVDDEPIPMGTEVEITAISGVKAIVRKG,0.309
5,HMTFFDDLLYQAKAAVDNDPSIKPSLHNRAIIEILYQQGVFNMKNAVEHVAELLEISKNTVYLHLRSVKG,-0.976
6,HMKPTVKGHFTRKESNVGGYADVRGWGVAGTPSMMANQSKDTRRFSTLIVPGRSVNVHPSPTKEAIIWWQS,-0.138
7,HMAHPRTHEALNPLWEKYLGPNAGNDFFLSGGTSLKALMFLKDLEKTLNKRIAIHAFFKDPTYEHVVSD,-0.467
8,HMGQKNEDESLAKFYVHKKGNQYGPYSLIQIREYLKNNSFSLDDLASWDGQSWKKISQIPNLN,0.182
9,HMKHKHHIIPKHKGGTDHPDNLIELTVEQHAKAHWVEFMLDGREEDYWAWKGLEGVASKKDIIYALSKR,-0.313
10,HMFEERKKDWNLTGLLDDVIRRYIHQLTNDELNEINLEKSSGMPDEEIKNGIKLPLAVMQQRRETWGS,-0.308
11,HMTSKIIIGDSYSKINKLLGEPENMKKRKFLDNEYLMVLYSINKKNYRLYFKDNILFELEDI,-0.582
12,HMRVDLATEVHSVLRRMMSRPPTLQEIRADLDGEEPGRVHEALDALRAAFRGGRGPKNPYESLKRSLRRG,-0.126
13,HMETKQYIVEAQDEGTRLDVYLTKELGQSRSYVQSLVKEGHVQVNGKTGKSNLKLSSSSEILVTIPEVQ,0.0538
14,HMLPIMDRLITAGISINTAKKWVDKFGDKRIKQNLAYSLAKQKEGKVKTNFVGYLAKAIEEDWGSGWE,≥ 0.43
15,HMGSPKLVIKNGQVDYQVLKKEKLDLLELTSLLRGQNTFSIREIEYAIIEPNGVITVIKKPEYQSVVKGDL,-1
16,HMRQPRGQRVTVREASSLLPFLFAHLTDRSRSAVKSLLRHGQIWVNGRVTTHFDMPLRPGDTVLISHERG,-0.233
17,HMPETAQLTDIQVSRSQAHTGIFSLHYYLTGTDSRGERVRLEISGDDYTRLSGSSSVTVEYYRHTGRIVRY,-0.552
18,HMTSPNPLIRSTTPGLETNKKGGIIVDENEMSTRENVFAGGDAVTGAATVILAMGAGKKAAAAIDAKLQN,0.22
19,HMKLHQDLQIKVIDAANNKVEFIDTATGTSLATRTLDVNGVSKARGFEATLYGVVEDNDVFHIA,-0.116
20,HMNAELSTVQAAEVLNVSRPFLIKLLEDGAIPHRKVGKHRRVRMEDVMSYKAAIDTEREAVLDQLAA,-0.722
21,HMTSLSYINDLVTGATAQGLYRIVVPNQFMDDNMANVLRRTYGYQVQSRTSLMGTFDDYIISWAPPM,-1.59
22,HMDLANRSLDRGITILESLARNGASSLADLHRDSGIAKSTIRRLLGTLIQHRLVRRSVADGLYRVTIPLPA,0.025
23,HMGSEEMLGALGVVERATDDGDWWIAVHGEHWRARSAQALVPGDRVRVARIDGLTLTVTPIA,0.0708
24,HMVPAMEVALEDARRAIEQVVSGERTSVQLSSQEAMIRKLQHQMAKDANLFSRSSGVEPQRRVTIYTN,-0.478
25,HMGEQETILKGDVNRDGVVDVNDVTHLQIHISNDDKNPLIDVTNKAWFDAADMYGDGKLDILDATALQIYI,-0.145
26,HMSFKQARFMMDAANGKALAWLYSHAEVLDRKDQGENIEIHVMISPADLSRFVNAFGYQPVQS,-0.0667

row,Sequence,soluble fraction (log2)
1,HMDLGTHMRLIVPTGMRVDHIVYESNGKNISVDHDRSISVRWNGEVVSIDVSPLPSRPDFDVLIYMSPK,-0.162
2,HMSEVTYQETLRLLRRAIDVLPQQSRQIILLGLSGKNNNEVAEMLGISVNTVKTLKKGAYKSLRNSL,-0.281
3,HMENFYGYEIINPEAKKFFITMGVNRYALEQWIKNKSEYGLIIVKSLYPFDPRLKLFLEKNRERIQNLIF,-0.305
4,HMEPEWVINTDGSNLNEILAIDEVDSRKTFSNDLQEVYRTFGIEAARQILVQEIDAVIESSGA,-0.675
5,HMVSFAEQASDWLAHFDRLGDVGPDTTLTDLTARDAEFSAWVNEGIHHRVAFLETLAAWHRTER,-0.0379
6,HMTQSQSLQSQFEQLEKAYQDNLHLLSPKQKLIIQEAGKIIQQLPQQAQIQAKVNLYQSLSAEISKESQQ,-0.107
7,HMQKTQVVEVAGKSYQLTKMDARTGSYVAFKVAGVLAPSGGKTAEMAAALMGMPRKDFDELQSLLLRTV,≥ 0.43
8,HMVLTSFHDNFPKTGTTYTVRSGDTISGIATKFGSTRDWIQNANEISHPKYLQVGRTLFIPH,0.22
9,HMKNEQIFIVRPDAEGTRLDQWLAAQMASSEEAPSRMQIQRWIKAGLVEGQGTLNPARRIEAGESYTVKPG,0.203
10,HMDYNLTKNQKIVFNLLQNSGEPLKAYTILESLKREGLKSPLQVYRALDKLVELGIIHKIESQNSFI,0.0373
11,HMPSLGGLLALLKRNRKPDAMEALDRLISKEDRPETAEALENIREKVRNMQMREAEGLLLALMEP,-0.281
12,HMARAPIYPDGLTQREVEVLSLVAAGKTDREIAEELFIALRTVTTHVGNILNKIGAANRTEAAGYATRQGL,-1.4
13,HMIMPSDATEAKLLGVLGNEPLHVDEIRNQAELPIEKVSAALALMELKGMVRQVGGMNYVAVR,-0.263
14,HMFKEVPVPDVKGMTLEEAKLALEKEGFILGKTEEAESTEVAAGKIISQNLEAGKIAKQGTSVNLVVSKGK,-0.0392
15,HMEALPELTDRQRQVYEFIEARIAEWGYPPTIREIGQHLGIKSTNGVADHLKALKRKGYLQQ,-0.804
16,HMLGITEGSLVRVIRSPNFGKIGTVAELPAELRMMESETMVRIAIVEIEGTNFEIPRSNLEVLET,-1.28
17,HMTNIDRLIGQTAIVKETINNKKEQGVVRINGMDWTARTEEIDEVILKGKPVEILDIQGIKLIVRKK,0.161
18,HMAFGTGTVTASSLRVREDASTSAATLDTLSKGSKVSVLADEQDGFYKVQIGEQVGYMSAEYLDVTE,-0.269
19,HMDLPSSETLKVKLNLAKAYVTIEDFGAARRALDEVLSVSSLVDPDLTIQAKSLLAEIDQRS,-0.0976
20,HMFWRKIDFYGLNLSTYRNIINIGSDYNYIYLDLGNIYKILNPITGKIIEEQDLVMNIDNINWSS,-0.105
21,HMSTINGIEKYLSSGLIPYIGPKTAKRIVEKFGLDTLEIIQYNPERLKEIEGIGDKKLKKIVEAFEEQG,-0.333
22,HMKEIKRLVELSPGRYFIEGATNIRVFGINGSLLLDTKGETVDLSDLAKGVYLLKTDGVTYKVL,-0.216
23,HMKITAPLPGTITEIKVKVGDTVKNGDTVVVLEAMKMQNNIEAESNGTVTAIFVNKGDTVMEGDALMTI,0.22
24,HMKDLTAIKGVGEFFAKKLSQAGYQSITNLTDVNAKRLQADTGIPLPIAARIIKEAQSLIAET,-0.00834
